Experimental data: patent US20120076787A1 (published 2012)

Columns and labels:
[1] = target: T1, Recombinant human B7-1 Fc Chimera (RnD Systems, 140-B1-100), biotinylated (human, UniProt P33681 35-242, biotinylated (ECL biotinylation module, GE Healthcare, at a quarter of the kit recommended level)); experiment: bridging ELISA: coated VEGFR2 Fc, titrated control, detection with biotinylated B7-1 Fc and ExtrAvidin peroxidase
T1 construct: Bought reagent; also called biotinylated B7-1; Fc part of the bought chimera not given
T1 sequence (looked up): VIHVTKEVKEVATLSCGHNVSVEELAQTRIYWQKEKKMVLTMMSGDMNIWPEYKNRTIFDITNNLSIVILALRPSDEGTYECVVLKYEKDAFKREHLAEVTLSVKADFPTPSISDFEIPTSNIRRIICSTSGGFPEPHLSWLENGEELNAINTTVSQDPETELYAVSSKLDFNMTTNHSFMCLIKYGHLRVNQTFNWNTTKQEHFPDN

human TNFα = target: T2, human TNFα (human, UniProt P01375 77-233); experiment: assay not stated (description of the dAb in Example 11)
T2 construct: also called TNF ligand; TNFα (Peprotech)
T2 sequence (P01375 77-233 limits assumed): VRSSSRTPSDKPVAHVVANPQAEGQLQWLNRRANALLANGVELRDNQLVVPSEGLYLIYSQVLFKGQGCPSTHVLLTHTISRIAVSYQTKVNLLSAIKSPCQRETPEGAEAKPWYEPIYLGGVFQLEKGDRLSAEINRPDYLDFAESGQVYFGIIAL

B1: BPC1801 (bispecific IGF1R-VEGFR2 antigen binding construct) (bispecific antibody, human IgG1, kappa)
heavy: not shown
light: DIVMTQSPLSLPVTPGEPASISCRSSQSIVQSNGDTYLEWYLQKPGQSPQLLIYRVSNRFSGVPDRFSGSGSGTDFTLKISRVEAEDVGVYYCFQGSHVPYTFGQGTKLEIKRTVAAPSVFIFPPSDEQLKSGTASVVCLLNNFYPREAKVQWKVDNALQSGNSQESVTEQDSKDSTYSLSSTLTLSKADYEKHKVYACEVTHQGLSSPVTKSFNRGEC
notes: Negative control of the VEGFR2/B7-1 bridging ELISA
- binding result [1]: no binding

B2: PEP1-5-19 (anti-TNFα dAb) (other)
VL: DIQMTQSPSSLSASVGDRVTITCRASQSIDSYLHWYQQKPGKAPKLLIYSASELQSGVPSRFSGSGSGTDFTLTISSLQPEDFATYYCQQVVWRPFTFGQGTKVEIKR
notes: Vk domain antibody (dAb), monomer; also called Anti-TNFα Vk dAb (PEP1-5-19)
- Kd (human TNFα): ~8 nM
